Consider 20 sequences from a protein production outcome set (Wang et al. 2014).

A short description of this data set: label from the status in PepcDB records.

Consider “MSLKKKIAVVTGATGGMGIEIVKDLSRDHIVYALGRNPEHLAALAEIEGVEPIESDIVKEVLEEGGVDKLKNLDHVDTLVHAAAVARDTTIEAGSVAEWHAHLDLNVIVPAELSRQLLPALRAASGCVIYINSGAGNGPHPGNTIYAASKHALRGLADAFRKEEANNGIRVSTVSPGPTNTPMLQGLMDSQGTNFRPEIYIEPKEIANAIRFVIDAGETTQITNVDVRPRIELADRKEGHHHHHH”, for which the protein production entry was “not failed”.

Turning to “MSLKLIGMLDSPYVRRVAISLKSLGLPFEHHSLSVFSTFEQFKAINPVVKAPTLVCEGGEVLMDSSLIIDYLETLAGPQRSLMPTALPQRLRELRLVGLALAACEKSVQIVYERNLRPAEKQHGPWLERVGGQLQAAYGELEQELQKQPLPRDGSLGQAGISLAVAWSFSQMMVADQFNPGQFPAVRGFAEYAEQLPVFLATPATEGHHHHHH”, the protein production entry was “not failed”.

Consider “MSLKTGRSNIIAFIVPDQNPFFTEVLTEISHECQKHHLHVAVASSEENEDKQQDLIETFVSQNVSAIILVPVKSKFQMKREWLKIPIMTLDRELESTSLPSITVDNEEAAYIATKRVLESTCKEVGLLLANPNISTTIGRKNGYNKAISEFDLNVNPSLIHYSDQQLGTNAQIYSGYEATKTLLSKGIKGIVATNHLLLLGALQAIKESEKEIKKDVIIVGFDDSYWNEIYTPKLTVISQPVKEMGQVAAKMIYKLIKGKDVTSIKLSTKLIIRESCSFNEGHHHHHH”, for which the protein production entry was “not failed”.

On to “MSLKYFKRLSDRERAIFEAGITLGAIYHQFCGTPVSPGTAEEVAKCIERAALLQPCVIDARVEVDVSSEDTDNYGGYTEVSGRNLRVTIVTRCGEWEAVGKLEFIEELNYPLMWVEEIRRVEQEGHHHHHH”, for which the protein production result was “not failed”.

Consider “MSLLEKDINLKIFKGNLIFTKTSDKFTIMKDSYIVVIDGKIASVSSNLPDKYKGNPIIDFRNNIIIPGMNDLHAHASQYKNLGIGMDKELLPWLNNYTFPEEAKFLNVDYAKKTYGRLIKDLIKNGTTRVALFATLHKDSTIELFNMLIKSGIGAYVGKVNMDYNCPDYLTENYITSLNDTEEIILKYKDKSNIVKPIITPRFVPSCSNELMDGLGKLSYKYRLPVQSHLSENLDEIAVVKSLHKKSNFYGEVYDKFGLFGNTPTLMAHCIHSSKEEINLIKRNNVTIVHCPTSNFNLGSGMMPVRKYLNLGINVVLGSDISAGHTCSLFKVIAYAIQNSKIKWQESGKKDMFLSTSEAFYMATKKGGSFFGKVGSFEEGYDFDALVINDSNLYPEDYDLTERLERFIYLGDDRNIMKRYVCGNEIFGPKFEGHHHHHH”, for which the protein production entry was “not failed”.

As for “MSLLFLAMAPKPKPWVQTEGPEKKKGRQAGREEDPFRSTAEALKAIPAEKRIIRVDPTCPLSSNPGTQVYEDYNCTLNQTNIENNNNKFYIIQLLQDSNRFFTCWNRWGRVGEVGQSKINHFTRLEDAKKDFEKKFREKTKNNWAERDHFVSHPGKYTLIEVQAEDEAQEAVVKVDRGPVRTVTKRVQPCSLDPATQKLITNIFSKEMFKNTMALMDLDVKKMPLGKLSKQQIARGFEALEALEEALKGPTDGGQSLEELSSHFYTVIPHNFGHSQPPPINSPELLQAKKDMLLVLADIELAQALQAVSEQEKTVEEVPHPLDRDYQLLKCQLQLLDSGAPEYKVIQTYLEQTGSNHRCPTLQHIWKVNQEGEEDRFQAHSKLGNRKLLWHGTNMAVVAAILTSGLRIMPHSGGRVGKGIYFASENSKSAGYVIGMKCGAHHVGYMFLGEVALGREHHINTDNPSLKSPPPGFDSVIARGHTEPDPTQDTELELDGQQVVVPQGQPVPCPEFSSSTFSQSEYLIYQESQCRLRYLLEVHL”, the protein production entry was “not failed”.

Take “MSLNLTIGTSKFNPPFEVWSGNNSSLYGFDIDLMQEICRRLHATCTFEAYIFDDLFPALKNREVDLVIASMIITDERKKHFIFSLPYMESNSQYITTVDSKISTFDDLHGKKIGVRKGTPYARQVLSENRNNQVIFYELIQDMLLGLSNNQVDASLMDYEAAKYWMASEPYAYKLIGKKYKLIGKKISIGEGYSIMANPDQFVLIKKINKILLEMEADGTYLRLYSEYFEGHHHHHH”: the protein production result is reported as “not failed”.

“MSLNMFWFLPTHGDGHYLGTEEGSRPVDHGYLQQIAQAADRLGYTGVLIPTGRSCEDAWLVAASMIPVTQRLKFLVALRPSVTSPTVAARQAATLDRLSNGRALFNLVTGSDPQELAGDGVFLDHSERYEASAEFTQVWRRLLQRETVDFNGKHIHVRGAKLLFPAIQQPYPPLYFGGSSDVAQELAAEQVDLYLTWGEPPELVKEKIEQVRAKAAAHGRKIRFGIRLHVIVRETNDEAWQAAERLISHLDDETIAKAQAAFARTDSVGQQRMAALHNGKRDNLEISPNLWAGVGLVRGGAGTALVGDGPTVAARINEYAALGIDSFVLSGYPHLEEAYRVGELLFPLLDVAIPEIPQPQPLNPQGEAVANDFIPRKVAQS”: the protein production entry is “not failed”.

Regarding “MSLNTSIYGLIGEKLGHSHSSYIHKLIFEKVGIKGIYNLFEVPKEKLKESVDTFKIIKCGGLNVTIPYKVEVMKELYEISEKARKIGAVNTLKFSREGISGFNTDYIGFGKMLSKFRVEIKNNICVVLGSGGAARAVLQYLKDNFAKDIYVVTRNPEKTSEIYGEFKVISYDELSNLKGDVIINCTPKGMYPKEGESPVDKEVVAKFSSAVDLIYNPVETLFLKYARESGVKAVNGLYMLVSQAAASEEIWNDISIDEIIVDEIFEVLEEKIKSEGHHHHHH”, the protein production result is listed as “not failed”.

For the sequence “MSLNYEESNLIVFGVGFDGTTSNRPGARFASSSMRKEFYGLETYSPFLDLDLEDYNICDYGDLEISVGSTEQVLKEIYQETYKIVRDSKVPFMIGGEHLVTLPAFKAVHEKYNDIYVIHFDAHTDLREEYNNSKNSHATVIKRIWDIVGDNKIFQFGIRSGTKEEFKFATEEKHTYMEIGGIDTFENIVNMLNGKNIYLTIDLDVLDASVFPGTGTPEPGGVNYREFQEIFKIIKNSNINIVGCDIVELSPDYDTTGVSTVIACKILRELCLIISDKIKEGHHHHHH”, the protein production result is “not failed”.

Regarding “MSLPAFVEALLTPAAYPHAVTTPIQLLQTHISYVFLTGDYAYKVKKPADFGFLNFTTLERRLFYCQEELRLNRRLAPDLYLAVVPIVAVGDRYCVAHPQDLPAGAEVIEYAVQMRQFDQSQLFSHLFAANQVTPHLIESLGKELAHFHRCAATSPRISEFGSPRAIAQVINNCHALAAQFVGRCQSPEQYAAIQAFTDDFLSRRQEWFVRRQAGGKIRECHGDLHLNNICLYNGKVQIFDCIEFNEEFRNIDGIYDAAFLLMDLEFRRRGDLANLFLNTYLEWSGDYEGAVLLPLYLCVRAYIRGNVNALALNDPAISGAEKAQIQATAAAYYGAAYRYTQPRQAKLYMMCGLSGAGKSTRGRRLAQAEQAIQIRSDAVRKHLAHLPLDRRSTDFPEVDLYSDAMTEKTYDQLLAYAELLLPQGQTVILDAKYDRVALRQPVIALAKKLHVPLEIHFCSAPPEELHRRLSARQGDIAEATPDLIATQMASFEPFLPEEEPYVRHVCD”, the protein production entry is on record as “failed”.

Consider “MSLRIAIVGAGALGLYYGALLQRSGEDVHFLLRRDYEAIAGNGLKVFSINGDFTLPHVKGYRAPEEIGPMDLVLVGLKTFANSRYEELIRPLVEEGTQILTLQNGLGNEEALATLFGAERIIGGVAFLCSNRGEPGEVHHLGAGRIILGEFLPRDTGRIEELAAMFRQAGVDCRTTDDLKRARWEKLVWNIPFNGLCALLQQPVNLILARDVSRKLVRGIMLEVIAGANAQGLATFIADGYVDDMLEFTDAMGEYKPSMEIDREEGRPLEIAAIFRTPLAYGAREGIAMPRVEMLATLLEQATGEGHHHHHH”, for which the protein production result is “not failed”.

On to “MSLRKQSWLWMLLVILSETSATSTLKMFDNSQGMTKAALLAIIILLYCVCYYSLSKAVRHLPVGLAYATWSGTGILLVSTLSIIFYGQHPDIPAIVGMIVIATGIMIMNLFSKMGVDEQPEKLDSSNQSQPLETKIIH”, for which the protein production entry is reported as “failed”.

Turning to “MSLRRLLAVFAVVGMVVIAGCAGGIDNGEPATSGVTEQATTTVATTETAAPTGELVVHQLNVGQGSSTLVVGPDGETLLIDTGDWTDDGEDVIAYLESQGVTRIDHLVTSHPDADHIGGHAAVIEHFETNGDGVGAVYDPGIASSSATYEEYLDAVEAHNVPLYRTQAGDSIPMSGATAQILAPPEGYLANEDRNENSIVVHVQFGASSFLLPGDGETASEEYLVDTYGDRLNSTVLVVGHHGSRSSTSAAFLEAVSPRVAVISSAYESQYGHPHEAVLERLAARSIPTYWTATHGTITFTSNGSAVTVATQQDAPTTATELRSGDPVEPGTGGGLVDRLVIPTAGSGTTPITDPDGTTEPAETTSTSTAGRLDLVEIHADAAGDDAENLNGEYITVEHTGASSLDLSGWTLADAAGHSYTIPEGTVLEPGDQLTIYTGSGTDTATELYWGQSSPVWNNGGDTISLRDATGTTVIEETY”, the protein production entry is “failed”.

Regarding “MSLRRRFCAFLKGMQSPMIFDVKAPILGFETIHKMRLQKIDEIFLRLNSTEENSVVSFTLVNPFALRKYEFEVPTPLKILLELEGAKSVLVANIMVVQTPIELSTVNYLAPLIFNLDKQLMGQVVLDSNKYPHYHLRENILSHTHE”, the protein production entry is recorded as “failed”.

As for “MSLRSKRVLVVEDNPDDIALIRRVLDRKDIHCQLEFVDNGAKALYQVQQAKYDLIILDIGLPIANGFEVMSAVRKPGANQHTPIVILTDNVSDDRAKQCMAAGASSVVDKSSNNVTDFYGRIYAIFSYWLTVNHCQEGHHHHHH”, the protein production entry is “not failed”.

As for “MSLRTKGNAELILQIDAYLPDTYISDQRHKIEIYKKIRQIDNRVNYEELQEELIDRFGEYPDVVAYLLEIGLVKSYLDKVFVQRVERKDNKITIQFEKVTQRLFLAQDYFKALSVTNLKAGIAENKGLMELVFDVQNKKDYEILEGLLIFGESLLEIKESKEKNSEGHHHHHH”, the protein production result was “not failed”.

“MSLRTQLIAVLIDDYSNPWFIDLIQSLSDVLTPKGYRLSVIDSLTSQAGTDPITSALSMRPDGIIIAQDIPDFTVPDSLPPFVIAGTRITQASTHDSVANDDFRGAEIATKHLIDLGHTHIAHLRVGSGAGLRRFESFEATMRAHGLEPLSNDYLGPAVEHAGYTETLALLKEHPEVTAIFSSNDITAIGALGAARELGLRVPEDLSIIGYDNTPLAQTRLINLTTIDDNSIGVGYNAALLLLSMLDPEAPHPEIMHTLQPSLIERGTCAPREGHHHHHH”: the protein production result is listed as “not failed”.

Regarding “MSLSDDPMASIKLLNLERENSAIAQYQSNIANLKTTLSSQETHLDSVSESLKSMRDIVLWGANGSLTDQDRSGMITELKSYRDSIESSFNAQDEEGHFLFSGTKTDTAALNKSSGAYVVEGNSDVRVVTVAKGVTMDSNMTAQEILDIGGGKNVLNQIDALIAEFEKPSPNFQAEVDASLNAIDDTMANVLGAMTEIGGRHNNLDLMDGAHSENKLFVDKVSGDLSALDYGEGHHHHHH”, the protein production entry was “not failed”.

With “MSLSEGTFEVGKNTFLLNGEPFVVKAAEIHYPRIPKEYWEHRIKMCKALGMNTICLYVFWNFHEPEEGRYDFAGQKDIAAFCRLAQENGMYVIVRPGPYVCAEWEMGGLPWWLLKKKDIKLREQDPYYMERVKLFLNEVGKQLADLQISKGGNIIMVQVENEYGAFGIDKPYISEIRDMVKQAGFTGVPLFQCDWNSNFENNALDDLLWTINFGTGANIDEQFKRLKELRPDTPLMCSEFWSGWFDHWGAKHETRSAEELVKGMKEMLDRNISFSLYMTHGGTSFGHWGGANFPNFSPTCTSYDYDAPINESGKVTPKYLEVRNLLGNYLPEGETLPEIPDSIPTIAIPTIKMTEMAVLFDNLPHPKESEDIRTMEAFDQGWGSILYRTSLSASDKEQTLLITEAHDWAQVFLNGKKLATLSRLKGEGVVKLPPLKEGDRLDILVEAMGRMNFGKGIYDWKGITEKVELQSDKGVELVKDWQVYTIPVDYSFARDKQYKQQENAENQPAYYRSTFNLNELGDTFLNMMNWSKGMVWVNGHAIGRYWEIGPQQTLYVPGCWLKKGENEIIILDMAGPSKAETEGLRQPILDVQRGNGAYAHRKMGEGHHHHHH”, the protein production entry was “not failed”.
